The values that follow come from patent US20150368327A1 (YOKOHAMA CITY UNIVERSITY, published 2015).

Broadly, the EC50 (read off the curve) is the midpoint of the concentration-response curve.

One experiment addresses T1, mouse Sema 3A protein (mouse, UniProt O08665 21-772, limits assumed).
T1 construct: Produced from mouse Sema 3A protein expressing cells; also called Mouse Sema 3A antigen
T1 sequence (looked up): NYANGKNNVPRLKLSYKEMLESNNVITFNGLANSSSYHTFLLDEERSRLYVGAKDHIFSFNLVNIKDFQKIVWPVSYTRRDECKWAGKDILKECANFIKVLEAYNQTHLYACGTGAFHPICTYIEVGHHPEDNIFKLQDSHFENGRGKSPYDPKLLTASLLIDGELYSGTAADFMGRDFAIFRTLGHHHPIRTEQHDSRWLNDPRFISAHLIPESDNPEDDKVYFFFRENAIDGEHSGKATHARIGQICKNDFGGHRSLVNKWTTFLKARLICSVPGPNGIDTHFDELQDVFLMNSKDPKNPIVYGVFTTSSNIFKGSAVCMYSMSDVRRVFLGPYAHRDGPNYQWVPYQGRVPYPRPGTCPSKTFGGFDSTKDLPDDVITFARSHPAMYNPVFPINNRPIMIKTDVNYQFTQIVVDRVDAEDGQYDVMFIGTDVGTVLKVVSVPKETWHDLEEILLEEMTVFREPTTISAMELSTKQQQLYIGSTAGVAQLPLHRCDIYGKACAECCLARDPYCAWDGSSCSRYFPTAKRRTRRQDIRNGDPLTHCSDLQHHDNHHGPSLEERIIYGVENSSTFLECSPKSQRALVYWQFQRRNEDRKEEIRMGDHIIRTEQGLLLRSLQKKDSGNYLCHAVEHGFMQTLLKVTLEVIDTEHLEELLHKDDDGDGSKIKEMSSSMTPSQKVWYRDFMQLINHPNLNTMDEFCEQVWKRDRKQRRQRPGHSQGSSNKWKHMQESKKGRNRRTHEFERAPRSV
Description: antigen solid phase ELISA: coated mouse Sema 3A (2.5 µg/mL), anti-mouse IgG2A-HRP, OD450. The procedure: (§1) The antigen specificity of the purified antibody was measured by ELISA with PBS buffer. 2.5 μg/mL of antigen was dispensed to a 96 well Maxi Sorp Plate (Nunc) and reacted overnight at 4° C. to coat the plate with an antigen (mouse Sema 3A protein). Ovalbumin, rabbit IgG and skim milk were immobilized in the plate as negative controls in similar manner in order to examine specificity of antibodies. The next day, the plate was washed three times with 200 μL/well of washing solution (PBS containing 0.05% Tween 20), to which was added 200 μL/well of blocking solution (PBS containing 0.5% skim milk) and the mixture was reacted for 30 minutes. The plate was washed three times with 200 μL/well of washing solution, to which was added 100 μL of culture supernatant containing antibody and the mixture was reacted for one hour. The plate was washed five times with 200 μL/well of washing solution, to which was added 100 μL/well of diluent in which anti-mouse IgG2A goat antibody labeled with horseradish peroxidase (HRP) (Bethyl Laboratories, Inc.) was diluted 2000 times with PBS buffer and the mixture was reacted for one hour. […] The absorbance was measured at 450 nm using μQuantBiomolecular Spectrometer (Bio Tek Instruments, Inc.) Results are shown in FIG. 2.
(ELISA stands for enzyme-linked immunosorbent assay.)

For experiment [1], the target named is bovine serum albumin (BSA) (bovine, UniProt P02769 25-607). Description: antigen solid phase ELISA: coated BSA, anti-mouse IgG2A-HRP, A450. Here is the method: The obtained avian-mouse chimeric antibody in Example 1 and the obtained humanized antibodies (Humanized-1 and Humanized-2) and avian-human chimeric antibody in Example 2 were measured for antigenic specificity by antigen solid phase ELISA with PBS buffer. The obtained avian-mouse chimeric antibody in Example 1, which was labeled with biotin, was also measured for antigenic specificity. CL18M (+) avian-mouse chimeric antibody, which served as a negative control, was also measured for antigenic specificity. Particular measurement conditions were as follows.
Chain of bovine serum albumin (BSA) (P02769 25-607 limits assumed): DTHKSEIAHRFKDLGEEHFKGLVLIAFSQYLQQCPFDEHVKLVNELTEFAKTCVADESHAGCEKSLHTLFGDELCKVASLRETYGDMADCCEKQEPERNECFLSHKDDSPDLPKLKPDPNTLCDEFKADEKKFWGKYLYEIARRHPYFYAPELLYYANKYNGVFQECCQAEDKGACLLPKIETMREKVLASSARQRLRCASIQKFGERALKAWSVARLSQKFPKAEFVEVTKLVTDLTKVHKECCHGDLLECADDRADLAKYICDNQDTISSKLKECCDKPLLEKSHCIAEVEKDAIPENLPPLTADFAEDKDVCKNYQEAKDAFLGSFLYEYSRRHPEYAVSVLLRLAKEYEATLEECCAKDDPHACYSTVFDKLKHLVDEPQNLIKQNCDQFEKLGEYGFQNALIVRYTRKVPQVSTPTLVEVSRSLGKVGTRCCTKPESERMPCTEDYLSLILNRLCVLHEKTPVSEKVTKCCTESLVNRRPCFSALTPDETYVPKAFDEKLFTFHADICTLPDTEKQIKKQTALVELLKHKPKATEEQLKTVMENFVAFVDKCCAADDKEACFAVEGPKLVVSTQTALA
Firstly, 2.5 μg/mL of antigen (mouse and human Sema 3A protein) was dispensed into a 384 Well MaxiSorp Plate (Nunc) and reacted overnight at 4° C. in order to coat the plate with the antigen. Otherwise, ovalbumin (OVA) and bovine serum albumin (BSA) were immobilized in the plate as negative controls in similar manner in order to examine specificity of antibodies. After reaction, the plate was washed three times with 50 μL/well of washing solution (PBS containing 0.05% Tween 20), to which was added 25 μL/well of blocking solution (PBS buffer containing 1% bovine serum albumin), and the mixture was reacted for 30 minutes. […] The absorbance was measured at 450 nm using Infinite M1000 (Tecan Trading AG).

The target of the next experiment is T2, ovalbumin (OVA) (UniProt P01012 2-386).
T2 sequence (looked up): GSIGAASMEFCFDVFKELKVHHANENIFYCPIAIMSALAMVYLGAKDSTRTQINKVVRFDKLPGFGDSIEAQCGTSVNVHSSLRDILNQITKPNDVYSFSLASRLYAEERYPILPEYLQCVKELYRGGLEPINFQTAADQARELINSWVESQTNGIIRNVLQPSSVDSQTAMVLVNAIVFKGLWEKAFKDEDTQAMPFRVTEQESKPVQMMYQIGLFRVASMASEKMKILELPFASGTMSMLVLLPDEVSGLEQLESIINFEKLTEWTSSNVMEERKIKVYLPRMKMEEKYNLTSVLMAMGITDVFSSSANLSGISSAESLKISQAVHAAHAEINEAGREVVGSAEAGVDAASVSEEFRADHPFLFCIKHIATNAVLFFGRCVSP
Description: antigen solid phase ELISA: coated ovalbumin (negative control), anti-mouse IgG2A-HRP, OD450. The procedure:
as §1

B1: Anti-Sema 3A avian-mouse chimeric antibody (clone No. 4-2-derived) (antibody, mouse IgG2a)
heavy: AVTLDESGGGLQTPGGALSLVCKASGFTFSSYPMGWVRQAPGKGLEWVAGIDDDGDSDTRYAPAVKGRATISRDNGQSTVRLQLNNLRAEDTGTYYCAKHTGIGANSAGSIDAWGHGTEVIVSSAKTTAPSVYPLAPVCGDTTGSSVTLGCLVKGYFPEPVTLTWNSGSLSSGVHTFPAVLQSDLYTLSSSVTVTSSTWPSQSITCNVAHPASSTKVDKKIEPRGPTIKPCPPCKCPAPNLLGGPSVFIFPPKIKDVLMISLSPIVTCVVVDVSEDDPDVQISWFVNNVEVHTAQTQTHREDYNSTLRVVSALPIQHQDWMSGKEFKCKVNNKDLPAPIERTISKPKGSVRAPQVYVLPPPEEEMTKKQVTLTCMVTDFMPEDIYVEWTNNGKTELNYKNTEPVLDSDGSYFMYSKLRVEKKNWVERNSYSCSVVHEGLHNHHTTKSFSRTPGK
light: ALTQPASVSANLGGTVKITCSGGGSYTGSYYYGWYQQKSPGSALVTMIYYNNKRPSDIPSRFSGSLSGSTNTLTITGVRADDEAVYFCGSADNSGDAFGAGTTLTVLGQPKSSPSVTLFPPSSEELETNKATLVCTITDFYPGVVTVDWKVDGTPVTQGMETTQPSKQSNNKYMASSYLTLTARAWERHSSYSCQVTHEGHTVEKSLSRADCS
notes: Avian variable regions of clone No. 4-2 with mouse IgG2a heavy and mouse lambda light constant regions; also called anti-Sema 3A avian-mouse chimeric antibody (IgG)
Regarding B1, the “EC50 (read off the curve)” value with mouse Sema 3A protein is about 0.01 µg/mL. The binding result was “no binding (tested: about 2 µg/mL)” in experiment [1] and “no binding (tested: 100 ng/µL)” with ovalbumin (OVA).
